According to paper PMC6902690 (The FASEB Journal, 2019):

Target: factor H binding protein variant 1, recombinant (Neisseria meningitidis serogroup B …, UniProt Q9JXV4, strain)
Test: Gyrolab immunoassay; biotinylated fHbp v1, v2 or v3 as capture reagent (100 µg/ml); Fabs at 10 µg/ml in Rexxip H; detection with goat anti-human IgG Fab fragment specific-Alexa 647 (25 nM); Bioaffy 200 CDs, 3-step method; positive when the fluorescent signal was higher than 10
Conditions: both partners purified

B1: huFab 1E6 (recombinant Fab produced in E. coli) (Fab, V domains shown)
VH: EVQLVQSGAEVKKPGSSVKVSCKASGGTVIDYPITWVRQAPGQGLEWVGGFVPLFRTSNYGQKFQGRVTITADKSTSTASMELNSLTSEDTAIYYCARGDTAMGPFDYWGQGTLVTVSS
VL: SYVLTQPPSLSVAPGKTATLTCGGNNIAGKTVHWYQQRPGQAPVLVISYDSDRPSGIPERFSGSNSANTATLTISRVEAGDEADYYCQVWDRNSDHWVFGGGTKLTVL
B1: binds.
